These results are taken from patent publication US20250090699A1, “FAP TARGETING CYCLIC PEPTIDES AND CONJUGATES THEREOF” (Novartis AG, priority 2023, published 2025).

Where a name gives a salt, the structure may show the parent alone. Starred links: 1 amine or outer side, 2 acyl side, 3 side chain; linkers in the order of their positions; H or OH if unused. Non-standard residues stand in square brackets, D forms with d. Residues, ends and D or L forms follow the SMILES beside them. *: point of attachment. F4(amMeBAlaDOTALu) = lutetium complex of (S)-2,2',2''-(10-(2-((3-((4-(2-amino-2-carboxyethyl)benzyl)amino)-3-oxopropyl)(methyl)amino)-2-oxoethyl)-1,4,7,10-tetraazacyclododecane-1,4,7-triyl)triacetic acid (Phe with 4-aminomethyl-N-methyl-βAla, CN(CCC(=O)NCc1ccc(C[C@H](N[*:1])C(=O)[*:2])cc1)C(=O)CN1CCN(CC(=O)[O-])CCN(CC(=O)[O-])CCN(CC(=O)[O-])CC1.[Lu+3]; F(4amPEG2NHDOTA-Ga) = gallium complex of (S)-2,2',2''-(10-(1-(4-(2-amino-2-carboxyethyl)phenyl)-3,12-dioxo-5,8-dioxa-2,11-diazatridecan-13-yl)-1,4,7,10-tetraazacyclododecane-1,4,7-triyl)triacetic acid (Phe with 4-aminomethyl-PEG2-DOTA-Ga), O=C([O-])CN1CCN(CC(=O)[O-])CCN(CC(=O)NCCOCCOCC(=O)NCc2ccc(C[C@H](N[*:1])C(=O)[*:2])cc2)CCN(CC(=O)[O-])CC1.[Ga+3]; F(4amPEG2NH-NOTA-AlF) = aluminum [18F]fluoride complex of (S)-2,2'-(7-(1-(4-(2-amino-2-carboxyethyl)phenyl)-3,12-dioxo-5,8-dioxa-2,11-diazatridecan-13-yl)-1,4,7-triazonane-1,4-diyl)diacetic acid (Phe with 4-aminomethyl-PEG2-NOTA-Al18F), O=C([O-])CN1CCN(CC(=O)[O-])CCN(CC(=O)NCCOCCOCC(=O)NCc2ccc(C[C@H](N[*:1])C(=O)[*:2])cc2)CC1.[18F][Al+2]; COpipzaa = 4-(carboxymethyl)piperazine-1-carbonyl, O=C(O)CN1CCN(C(=O)*)CC1; hS(Pr) = O-propyl-L-homoserine, CCCOCC[C@H](N[*:1])C(=O)[*:2]; NMeF = CN[C@@H](Cc1ccccc1)C(=O)O; Ahp(2) = CCCCC[C@H](N)C(=O)O; X3 = FC1(F)CCN(*)C1 A value given as a limit tells only on which side of the number the result lay.

One test addresses T1, human FAP (Homo sapiens, UniProt Q12884).
T1 construct: the biotinylated His, Avi tag, human FAP (26-760, FAP-H82Q6); His; Avi tag (biotinylated); purchased AcroBiosystems FAP-H82Q6
T1 sequence (Q12884 26-760): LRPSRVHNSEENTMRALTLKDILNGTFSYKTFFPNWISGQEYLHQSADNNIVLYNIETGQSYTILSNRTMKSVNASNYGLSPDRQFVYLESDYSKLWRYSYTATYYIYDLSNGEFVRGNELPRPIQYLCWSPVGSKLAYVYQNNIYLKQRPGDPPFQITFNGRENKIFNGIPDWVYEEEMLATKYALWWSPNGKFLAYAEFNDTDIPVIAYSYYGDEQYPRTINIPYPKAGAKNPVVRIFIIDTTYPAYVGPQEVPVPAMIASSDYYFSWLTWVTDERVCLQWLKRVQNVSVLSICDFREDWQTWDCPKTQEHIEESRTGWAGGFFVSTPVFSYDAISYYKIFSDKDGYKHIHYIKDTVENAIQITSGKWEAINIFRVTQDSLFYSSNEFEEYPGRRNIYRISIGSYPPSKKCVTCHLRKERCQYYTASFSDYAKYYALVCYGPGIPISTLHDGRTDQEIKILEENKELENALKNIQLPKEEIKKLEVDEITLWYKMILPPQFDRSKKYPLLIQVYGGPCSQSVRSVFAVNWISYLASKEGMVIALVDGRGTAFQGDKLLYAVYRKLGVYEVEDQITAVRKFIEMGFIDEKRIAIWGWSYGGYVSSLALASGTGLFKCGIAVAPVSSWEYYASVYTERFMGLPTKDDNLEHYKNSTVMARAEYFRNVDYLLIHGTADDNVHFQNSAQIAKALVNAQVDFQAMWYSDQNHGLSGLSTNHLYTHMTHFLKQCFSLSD
Briefly: Enzymatic FAP competition assay (Z-Gly-Pro-AMC fluorescence), human FAP. Type of test: biochemical. The following applies: read-out: h. FAP, Enz., IC50. The procedure: (§1) Peptide potencies (IC50) to inhibit the FAP enzymatic activity were determined using a fluorescence-based assay towards the biotinylated His, Avi tag, human FAP (26-760, FAP-H82Q6) and the biotinylated His, Avi tag, mouse FAP (26-761, FAP-M82Q5). Standard assay conditions consisted of 20 μL total volume in white 384-well plates (Greiner, Ref. 784075), in 50 mM phosphate buffer pH 7.5 containing 150 mM NaCl, 0.05% Tween20 and 1% final DMSO. Tested peptides at 14 different concentrations up to 1 μM were added to 0.01 nM human or mouse FAP. The peptides were incubated for 24 hours together with the protein before adding the substrate 50 μM Z-Gly-Pro-AMC (I-1145 from Bachem). Samples were then incubated at 22-24° C. for 4 h before reading the fluorescence at excitation wavelength of 380 nm and emission wavelength of 460 nm using the Tecan Infinite® M1000 PRO. The high control (100% activity) was not containing any peptide, and an internal potent peptide was added at 10 μM concentration for the low control (100% inhibition). IC50 values were calculated by curve fitting using an in-house developed software (Novartis Helios software application) using the method described by Fomenko et al., 2006 (regression algorithms for nonlinear dose-response curve fitting). Following normalization of activity values for the wells to % inhibition (% inhibition=[(high control-sample)/(high control-low control)]x 100). IC50 fitting was carried out from the duplicated points.

Test [1] deals with T2, mouse FAP (Mus musculus, UniProt P97321).
T2 construct: biotinylated His, Avi tag, mouse FAP (26-761, FAP-M82Q5); His; Avi tag (biotinylated); purchased AcroBiosystems FAP-M82Q5
T2 sequence (P97321 26-761): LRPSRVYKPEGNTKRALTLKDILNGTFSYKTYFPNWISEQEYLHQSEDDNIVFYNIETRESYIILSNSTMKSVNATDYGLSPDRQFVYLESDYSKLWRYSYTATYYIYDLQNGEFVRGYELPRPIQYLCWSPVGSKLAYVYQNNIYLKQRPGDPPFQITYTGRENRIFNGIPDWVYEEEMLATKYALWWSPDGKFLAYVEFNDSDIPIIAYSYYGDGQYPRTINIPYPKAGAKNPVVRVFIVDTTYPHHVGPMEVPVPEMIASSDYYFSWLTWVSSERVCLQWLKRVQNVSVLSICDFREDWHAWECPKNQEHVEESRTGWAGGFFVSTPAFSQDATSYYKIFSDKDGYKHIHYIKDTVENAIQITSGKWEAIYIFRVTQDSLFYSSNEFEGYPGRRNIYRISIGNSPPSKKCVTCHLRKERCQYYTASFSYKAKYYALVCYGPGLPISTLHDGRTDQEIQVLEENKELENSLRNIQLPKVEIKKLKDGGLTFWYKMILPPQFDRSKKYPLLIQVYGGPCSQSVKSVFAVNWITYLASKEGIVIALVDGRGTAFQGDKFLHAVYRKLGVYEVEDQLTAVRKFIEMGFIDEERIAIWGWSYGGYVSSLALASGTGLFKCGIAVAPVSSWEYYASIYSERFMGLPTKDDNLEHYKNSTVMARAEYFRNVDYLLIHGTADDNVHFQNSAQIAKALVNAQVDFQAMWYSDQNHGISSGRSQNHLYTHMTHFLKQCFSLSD
Description: Surface plasmon resonance (SPR) for peptide affinity, mouse FAP. The class given is binding. As to the method:
Peptide affinities (KD) were determined by SPR using a Biacore™ 8K device (Cytiva) towards the following proteins: biotinylated His, Avi tag, human FAP (26-760, FAP-H82Q6), biotinylated His, Avi tag, mouse FAP (26-761, FAP-M82Q5), His tag, human DPP4 (34-766, DP4-H82E3), all purchased from AcroBiosystems and His tag, mouse DPP4 (29-760, 954-SE) from R&D Systems. The FAP proteins and their homologous were diluted to a concentration of 2 μg/mL into acetate buffer pH 5.5, then immobilized onto a CM5 sensorchip (Cytiva, BR-1005-30) to reach a response around 2000 R U. The running buffer HBS-EP+pH 7.6 (20× from Teknova CAT. No: H8022) contained 10 mM HEPES pH 7.6, 150 mM NaCl, 3 mM EDTA, 0.05% Tween20 and 2% DMSO. Experiments were carried out at 25° C. using a flow rate of 30 μL/min. Compounds were tested in single cycle kinetic mode at 8 different concentrations. Curve fitting was performed using the Biacore™ 8K evaluation software. The sensorgrams were fitted by applying a 1:1 binding model to calculate kinetic rate constants and equilibrium dissociation constants (KD).
For this assay, the setup had the same conditions (flow rate, running buffer, peptide dilution) as described above for the CM5 method. The oligo CAP reagent obtained in the CAPture Kit (Ref. 28920234) was 1/5 diluted into running buffer and used with a contact time of 300 s at a flow rate of 2 μL/min. The human and mouse FAP constructs described above were used (from AcroBiosystems or produced in house). The FAP proteins were diluted to a concentration of 2 μg/mL into acetate pH 5.5, 0.05% Tween20 and used with a contact time of 600 s at a flow rate of 10 μL/min. The peptides were tested with an association time of 280 s followed by a dissociation time of 3000 s at a flow rate of 30 μL/min. The regeneration was done using the regeneration solution (8 M guanidine-HCl, 1 M NaOH) as obtained with a contact time of 270 s at a flow rate of 10 μL/min. […] The compounds marked with an asterisk were tested against human and mouse DDP4.

In test [2] the target is T2, mouse FAP. Briefly: Enzymatic FAP competition assay (Z-Gly-Pro-AMC fluorescence), mouse FAP. The class given is biochemical. The following applies: read-out: m. FAP, Enz., IC50. As to the method:
as §1

One may read the IC50 as the concentration that inhibits the measured activity by half. A word on the Kd: it is the constant that tells how readily two partners part at equilibrium. A higher Kd goes with weaker binding.

Turning to `CN1C(=O)CNC(=O)[C@H](CCCCN)NC(=O)[C@H]2CCCN2C(=O)[C@H](CC(=O)O)NC(=O)[C@H](Cc2ccc(O)cc2)NC(=O)CNC(=O)[C@H](Cc2c[nH]c3ccccc23)NC(=O)[C@H](CCC(=O)N2CCC(F)(F)C2)NC(=O)[C@H](Cc2ccc(O)cc2)NC(=O)[C@@H]1Cc1ccccc1` [Example A30, Lys-Gly-NMePhe-Tyr-Q(Pyrro(4F2))-Trp-Gly-Tyr-Asp-D-Pro, TFA salt] (cyclo(D[dP]KG[NMeF]YE(X3)WGY)), the half-inhibitory concentration (IC50) at human FAP amounted to 0.79 nM; on mouse FAP [2] it was 2.5 nM. The same compound yielded a Kd at mouse FAP [1] of 2.4 nM.

Take “Gly-Gly-NMePhe-F(4amPEG2NH-NOTA-AlF)-hS(Pr)-Trp-Gly-K(COpipzaa)-Asp-D-Pro (cyclo(GG[NMeF][F(4amPEG2NH-NOTA-AlF)][hS(Pr)]WGK(COpipzaa)D[dP]); also: Al[18F]F complex) [Example C53]”: the IC50 came out at 0.013 nM in the test with human FAP and 0.035 nM with mouse FAP [2]. In addition, in the test with mouse FAP [1], the Kd was < 0.035 nM.

As to “Gly-Gly-NMePhe-F(4amPEG2NHDOTA-Ga)-Ahp-Trp-Gly-Tyr-Asp-D-Pro (cyclo(GG[NMeF][F(4amPEG2NHDOTA-Ga)][Ahp(2)]WGYD[dP]); also: Ga complex) [Example C49]”, the IC50 in the test with human FAP amounted to 0.005 nM; with mouse FAP [2], 0.016 nM. In addition, the Kd with mouse FAP [1] was < 0.012 nM.

“Gly-Gly-NMePhe-F4(amMeBAlaDOTALu)-Ahp-Trp-Gly-Tyr-Asp-D-Pro (cyclo(GG[NMeF][F4(amMeBAlaDOTALu)][Ahp(2)]WGYD[dP]); also: Lu complex) [Example C11]”: the IC50 with human FAP turned out to be 0.009 nM; in the test with mouse FAP [2], 0.024 nM. Moreover, the Kd with mouse FAP [1] came to 0.028 nM.

As to `CCCCC[C@@H]1NC(=O)[C@H](Cc2ccc(O)cc2)NC(=O)[C@H](Cc2ccccc2)N(C)C(=O)CNC(=O)[C@H](CO)NC(=O)[C@H]2CCCN2C(=O)[C@H](CC(=O)O)NC(=O)[C@H](Cc2ccc(O)cc2)NC(=O)CNC(=O)[C@H](Cc2c[nH]c3ccccc23)NC1=O` [Example A19, Ser-Gly-NMePhe-Tyr-Ahp-Trp-Gly-Tyr-Asp-D-Pro] (cyclo([Ahp(2)]WGYD[dP]SG[NMeF]Y)), the results for the 50% inhibitory concentration (IC50) on human FAP and on mouse FAP [2] were 0.145 nM and 0.66 nM, respectively. Binding on mouse FAP [1] was put at a Kd of 0.26 nM.
